Results taken from PMC3544819, “Pax6 Interactions with Chromatin and Identification of Its Novel Direct Target Genes in Lens and Forebrain”.

Molecular target: Pax6 PD/HD (UniProt P63015 4-269)
Test: EMSA; not given in the material
Conditions: protein: recombinant; blunt

Pax6 PD/HD, sequence (P63015 4-269): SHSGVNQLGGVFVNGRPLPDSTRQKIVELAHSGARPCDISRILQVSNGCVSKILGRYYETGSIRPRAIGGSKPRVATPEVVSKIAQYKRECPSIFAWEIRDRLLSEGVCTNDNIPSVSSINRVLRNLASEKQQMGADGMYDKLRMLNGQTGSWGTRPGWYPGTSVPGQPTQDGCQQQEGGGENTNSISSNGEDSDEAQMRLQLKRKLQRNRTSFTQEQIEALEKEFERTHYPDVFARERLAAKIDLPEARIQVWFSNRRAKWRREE

B1: Kif1b site 1 (dsDNA)
DNA 1: ATGACCAATAGTAAAGCGTGGCTGGAAGAGGGG
DNA 2: CCCCTCTTCCAGCCACGCTTTACTATTGGTCAT
  binding result: binds

B2: Kif1b site 2 (dsDNA)
DNA 1: TAGGAAGCTTTCTGCTGGATACACTCATGCCTGAGCGTG
DNA 2: CACGCTCAGGCATGAGTGTATCCAGCAGAAAGCTTCCTA
  binding result: binds
